Here are results for six molecules from US7070974B1, “Metalloproteases of the neprilysin family” (Universite de Montreal, priority 1999, dated 2006).

Where two headings read alike, the source gives them in different places.

In series [1] the test system is NL1 secretion (subtilisin-like convertase processing) in HEK 293 cells. In words: Immunoblot of culture media of HEK 293 cells co-expressing NL1 and α1-PDX. It counts as cell-based, Human. The following applies: transient co-transfection, increasing amounts of α1-PDX plasmid; related to the amount. The protocol: Human Embryonic Kidney (HEK 293) cells were maintained in DMEM medium containing 10% fetal bovine serum (FBS), and supplemented with penicillin at 60 μg/ml, streptomycin at 100 μg/ml and fongizone at 0.25 μg/ml. Transfections of cells with appropriate plasmids were performed by the calcium/phosphate-DNA co-precipitation method (Chang 1987).
For immunoblot analysis, cells were incubated for 16 h in synthetic DMEM medium containing 2 mM sodium butyrate. Cellular proteins were solubilized as previously described (Dion 1995). Secreted proteins recovered in culture media were concentrated approximately 10 fold by ultrafiltration. Immunoblot analysis were performed using the NEN Renaissance kit with the polyclonal antibody specific to NL1 or the α1-antitrypsin inhibitor antibody (Calbiochem; LaJolla, Calif.) followed by the appropriate horseradish peroxidase-conjugated IgG (Vector Laboratories).
To determine whether a member of the mammalian subtilisine-like convertase family is responsible for NL1 presence in the culture medium of transfected cells, we co-transfected transiently HEK 293 cells with a constant amount of plasmid pCDNA3/RSV/NL1 and increasing amounts of plasmid pCDNA3/CMV/PDX (Benjannet 1997). This latter vector promotes the expression of the α1-antitrypsin Portland variant, α1-PDX, a known inhibitor of subtilisin-like convertases (Anderson 1993).

Series [2] deals with T1, sNEP (engineered soluble form of NEP) (Oryctolagus cuniculus, UniProt P08049).
T1 construct: Fusion of a cleavable signal peptide to the ectodomain of neutral endopeptidase; cleavable signal peptide of proopiomelanocortin (replaces cytosolic and transmembrane domains) (N, cleaved yes); made in house; host or cells: LLC-PK1 cells transfected with pRcCMV-sNEP; concentrated culture medium
T1 sequence (P08049 52-750 limits assumed): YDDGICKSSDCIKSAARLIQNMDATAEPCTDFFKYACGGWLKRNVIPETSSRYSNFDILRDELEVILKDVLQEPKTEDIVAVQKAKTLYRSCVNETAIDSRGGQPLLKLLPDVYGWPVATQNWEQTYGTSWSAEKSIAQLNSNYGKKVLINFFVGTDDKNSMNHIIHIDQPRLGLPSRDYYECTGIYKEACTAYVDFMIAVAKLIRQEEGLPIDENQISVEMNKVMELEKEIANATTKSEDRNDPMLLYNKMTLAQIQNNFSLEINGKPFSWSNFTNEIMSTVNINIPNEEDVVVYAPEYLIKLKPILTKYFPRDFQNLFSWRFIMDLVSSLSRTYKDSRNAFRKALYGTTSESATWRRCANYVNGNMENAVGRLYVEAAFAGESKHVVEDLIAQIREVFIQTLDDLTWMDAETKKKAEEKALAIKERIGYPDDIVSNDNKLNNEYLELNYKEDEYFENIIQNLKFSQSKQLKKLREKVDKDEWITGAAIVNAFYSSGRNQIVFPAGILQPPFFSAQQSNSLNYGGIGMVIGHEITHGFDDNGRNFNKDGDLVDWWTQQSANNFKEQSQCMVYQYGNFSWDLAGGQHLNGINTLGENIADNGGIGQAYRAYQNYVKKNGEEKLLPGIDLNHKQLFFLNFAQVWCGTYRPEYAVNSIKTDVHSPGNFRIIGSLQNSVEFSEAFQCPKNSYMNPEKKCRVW
In words: sNEP enzymatic activity assay with (Tyrosyl-[3,5-3H])(D-Ala2)-Leu5-enkephalin as substrate. It counts as biochemical. The following applies: inhibition of sNEP/NEP activity.

The target in another series is T2, sNEP (Oryctolagus cuniculus, UniProt P08049).
T2 construct: Fusion of a cleavable signal peptide to the ectodomain of neutral endopeptidase; cleavable signal peptide of proopiomelanocortin (replaces cytosolic and transmembrane domains) (N, cleaved yes); made in house; host or cells: LLC-PK1 cells transfected with pRcCMV-sNEP; concentrated culture medium
T2 sequence (P08049 52-750 limits assumed): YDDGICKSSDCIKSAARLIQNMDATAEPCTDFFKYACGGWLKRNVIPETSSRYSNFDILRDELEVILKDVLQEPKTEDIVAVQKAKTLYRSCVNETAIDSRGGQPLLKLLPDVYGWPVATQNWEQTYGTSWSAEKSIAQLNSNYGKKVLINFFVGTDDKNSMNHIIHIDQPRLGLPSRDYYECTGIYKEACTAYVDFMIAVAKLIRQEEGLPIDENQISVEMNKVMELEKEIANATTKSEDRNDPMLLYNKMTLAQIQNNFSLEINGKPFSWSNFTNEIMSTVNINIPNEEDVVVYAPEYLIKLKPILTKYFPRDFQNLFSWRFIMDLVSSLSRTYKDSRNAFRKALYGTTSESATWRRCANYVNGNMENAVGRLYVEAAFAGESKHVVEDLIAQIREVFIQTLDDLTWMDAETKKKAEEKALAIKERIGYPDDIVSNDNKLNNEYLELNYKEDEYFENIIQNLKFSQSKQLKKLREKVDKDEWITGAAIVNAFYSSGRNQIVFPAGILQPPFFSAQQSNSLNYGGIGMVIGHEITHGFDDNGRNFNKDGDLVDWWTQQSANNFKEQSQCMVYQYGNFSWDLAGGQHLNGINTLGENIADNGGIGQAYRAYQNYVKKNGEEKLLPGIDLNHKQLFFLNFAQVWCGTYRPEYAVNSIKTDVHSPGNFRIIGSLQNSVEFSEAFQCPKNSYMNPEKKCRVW
In words: HPLC analysis of the hydrolysis of Leu-enkephalin by sNEP. Conditions: phosphoramidon 1 μM, Leu5-enkephalin, RP-HPLC. It counts as biochemical. The source says: (§1) Hydrolysis products were separated by reversed-phase HPLC as described previously.

In series [3] the target is T3, NL1 (Mus musculus, UniProt Q9JLI3).
T3 sequence (Q9JLI3 63-765 limits assumed): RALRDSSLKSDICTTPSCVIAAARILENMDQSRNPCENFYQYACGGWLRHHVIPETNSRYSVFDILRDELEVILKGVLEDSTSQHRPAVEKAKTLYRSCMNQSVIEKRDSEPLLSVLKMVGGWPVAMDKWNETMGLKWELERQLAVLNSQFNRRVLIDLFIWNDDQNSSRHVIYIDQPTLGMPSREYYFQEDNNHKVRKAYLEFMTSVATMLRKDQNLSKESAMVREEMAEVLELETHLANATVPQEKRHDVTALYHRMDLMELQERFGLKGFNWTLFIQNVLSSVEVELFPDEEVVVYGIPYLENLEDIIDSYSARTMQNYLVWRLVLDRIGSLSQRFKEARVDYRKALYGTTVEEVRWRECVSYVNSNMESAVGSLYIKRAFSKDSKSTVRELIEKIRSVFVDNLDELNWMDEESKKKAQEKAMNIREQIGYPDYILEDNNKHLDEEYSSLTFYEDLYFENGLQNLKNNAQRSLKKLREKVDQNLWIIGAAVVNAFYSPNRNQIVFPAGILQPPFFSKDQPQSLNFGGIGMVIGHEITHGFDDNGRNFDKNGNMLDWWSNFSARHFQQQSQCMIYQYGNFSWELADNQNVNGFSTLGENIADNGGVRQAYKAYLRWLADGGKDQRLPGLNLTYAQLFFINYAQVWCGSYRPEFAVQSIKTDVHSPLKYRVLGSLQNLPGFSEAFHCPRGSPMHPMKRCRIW
In words: HPLC analysis of the hydrolysis of Leu-enkephalin by NL1. The following applies: phosphoramidon 1 μM; Leu5-enkephalin; NL1 from medium of HEK/NL1 cells; RP-HPLC. Type of series: biochemical. Set-up: The soluble form of NL-1 was assayed for activity; made in house; host or cells: HEK 293 cells (section 2, pCDNA3/RSV).
Description: as §1

Series [4] addresses T3, NL1. In words: NL-1 enzymatic activity assay with (Tyrosyl-[3,5-3H])(D-Ala2)-Leu5-enkephalin as substrate. It counts as biochemical. On the set-up: The soluble form of NL-1 was assayed for activity; made in house; host or cells: CHO cells (section 1, pcDNA3-RSV) and HEK 293 cells (section 2, pCDNA3/RSV). Conditions: inhibition of NL-1 degradation of the enkephalin substrate. The protocol:
Extracts of cellular proteins and culture media were assayed for enzymatic activity. Two tests were performed. The first used [^3H]-Tyr-(D)Ala2-Leu-enkephalin as substrate and was performed according to Lemay et al., (1989). The second used bradykinin as substrate and was performed as described by Raut et al. (1999).
NL1 activity was monitored and compared to sNEP activity using (Tyrosyl-[3,5-^3H])(D-Ala2)-Leu5-enkephalin (50 Ci/mmol) (Research Products International Inc.), as already described (Dion 1995; Devault 1988). Km values were determined by the isotope-dilution method.

The test system of series [5] is T4, (Tyrosyl-[3,5-3H])(D-Ala2)-Leu5-enkephalin.
T4 sequence: YAGFL

In series [6] the test system is T5, Leu5-enkephalin.
T5 sequence: YGGFL

The target of series [7] is T6, (Tyrosyl-[3,5-3H])(D-Ala2)-Leu5-enkephalin.
T6 chain: YAGFL

For series [8], the target named is T7, Leu5-enkephalin.
T7 chain: YGGFL

bradykinin, P01042, sequence (P01042 whole entry, looked up): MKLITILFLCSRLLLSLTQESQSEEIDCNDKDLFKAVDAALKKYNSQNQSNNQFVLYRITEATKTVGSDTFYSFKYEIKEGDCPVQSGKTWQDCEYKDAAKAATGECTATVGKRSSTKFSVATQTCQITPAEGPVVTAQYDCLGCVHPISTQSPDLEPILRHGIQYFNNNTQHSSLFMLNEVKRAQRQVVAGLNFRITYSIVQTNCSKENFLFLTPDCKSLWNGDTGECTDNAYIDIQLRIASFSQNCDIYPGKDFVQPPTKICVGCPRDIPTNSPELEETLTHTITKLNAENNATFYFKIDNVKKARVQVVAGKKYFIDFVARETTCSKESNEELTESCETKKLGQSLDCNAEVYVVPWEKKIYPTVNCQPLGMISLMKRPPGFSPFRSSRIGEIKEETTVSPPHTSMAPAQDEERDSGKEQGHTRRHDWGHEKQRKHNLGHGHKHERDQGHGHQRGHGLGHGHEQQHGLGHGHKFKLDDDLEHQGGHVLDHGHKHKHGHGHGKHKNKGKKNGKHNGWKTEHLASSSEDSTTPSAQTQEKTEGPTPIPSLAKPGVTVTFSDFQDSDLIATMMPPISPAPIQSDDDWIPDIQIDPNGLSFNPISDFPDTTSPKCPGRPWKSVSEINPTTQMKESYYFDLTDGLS

“α1-PDX: α1-antitrypsin Portland variant, a known inhibitor of subtilisin-like convertases, expressed from plasmid pCDNA3/CMV/PDX”: the “effect on NL1 secretion” value in series [1] is recorded as “strongly inhibited”.

What is called IC50 is the midpoint of a concentration-inhibition curve. Low values mean greater potency in that assay, high ones weaker potency in that assay. As for `CC(C)C[C@H](NP(=O)(O)O[C@@H]1O[C@@H](C)[C@H](O)[C@@H](O)[C@H]1O)C(=O)N[C@@H](Cc1c[nH]c2ccccc12)C(=O)O` [phosphoramidon], the IC50 in series [2] was 0.5 nM; at NL1 [4], 0.9 nM. Further, the “inhibition of enkephalin-degrading activity” value on sNEP and against NL1 [3] was “completely inhibited” throughout.

With engineered soluble form of NEP (sNEP), the Km result in [5] was “Km values of 18 µM and 73 µM, respectively”. Besides, the “cleavage products by RP-HPLC” value in the series with Leu5-enkephalin [6] is reported as “both enzymes cleaved the substrate at the Gly3-Phe4 peptide bond”.

Turning to `O=C(O)CNC(=O)C(CS)Cc1ccccc1` (centres unmarked) [thiorphan], at NL1 [4], 47 nM corresponded to half-maximal inhibition (IC50).

B1: soluble NL-1 (secreted form of mouse NL-1 recovered from culture medium) (protein)
chain: GKQLPLLTSLLHFSWDERTVVKRALRDSSLKSDICTTPSCVIAAARILENMDQSRNPCENFYQYACGGWLRHHVIPETNSRYSVFDILRDELEVILKGVLEDSTSQHRPAVEKAKTLYRSCMNQSVIEKRDSEPLLSVLKMVGGWPVAMDKWNETMGLKWELERQLAVLNSQFNRRVLIDLFIWNDDQNSSRHVIYIDQPTLGMPSREYYFQEDNNHKVRKAYLEFMTSVATMLRKDQNLSKESAMVREEMAEVLELETHLANATVPQEKRHDVTALYHRMDLMELQERFGLKGFNWTLFIQNVLSSVEVELFPDEEVVVYGIPYLENLEDIIDSYSARTMQNYLVWRLVLDRIGSLSQRFKEARVDYRKALYGTTVEEVRWRECVSYVNSNMESAVGSLYIKRAFSKDSKSTVRELIEKIRSVFVDNLDELNWMDEESKKKAQEKAMNIREQIGYPDYILEDNNKHLDEEYSSLTFYEDLYFENGLQNLKNNAQRSLKKLREKVDQNLWIIGAAVVNAFYSPNRNQIVFPAGILQPPFFSKDQPQSLNFGGIGMVIGHEITHGFDDNGRNFDKNGNMLDWWSNFSARHFQQQSQCMIYQYGNFSWELADNQNVNGFSTLGENIADNGGVRQAYKAYLRWLADGGKDQRLPGLNLTYAQLFFINYAQVWCGSYRPEFAVQSIKTDVHSPLKYRVLGSLQNLPGFSEAFHCPRGSPMHPMKRCRIW
Consider B1, for which, in series [7], the Km result is “Km values of 18 µM and 73 µM, respectively”; the “Km (degradation of the enkephalin substrate)” value is recorded as “Km=18±10 µM”; the “enzymatic activity in culture medium” value is listed as “Activity was detected in the culture medium of HEK/NL1 cells but not in that of HEK 293 cells”. For the same molecule, the “cleavage products by RP-HPLC” value in the series with Leu5-enkephalin [8] is recorded as “both enzymes cleaved the substrate at the Gly3-Phe4 peptide bond”. In addition, the substrate degradation entry with bradykinin, P01042 is reported as “Bradykinin is also a substrate for NL-1 (not shown)”.

B2: soluble form of NL-3 (NL-3 ectodomain secreted by means of the NL-1 amino-terminal domain) (protein)
chain: KYLGPVAAGGGACPEGCPERKAFARAARFLAANLDASIDPCQDFYSFACGGWLRRHAIPDDKLTYGTIAAIGEQNEERLRRLLARPGGGPGGAAQRKVRAFFRSCLDMREIERLGPRPMLEVIEDCGGWDLGGAEERPGVAARWDLNRLLYKAQGVYSAAALFSLTVSLDDRNSSRYVIRIDQDGLTLPERTLYLAQDEDSEKVLAAYRVFMERVLSLLGADAVEQKAQEILQVEQQLANITVSEYDDLRRDVSSMYNKVTLGQLQKITPHLRWKWLLDQIFQEDFSEEEEVVLLATDYMQQVSQLIRSTPHRVLHNYLVWRVVVVLSEHLSPPFREALHELAQEMEGSDKPQELARVCLGQANRHFGMALGALFVHEHFSAASKAKVQQLVEDIKYILGQRLEELDWMDAETRAAARAKLQYMMVMVGYPDFLLKPDAVDKEYEFEVHEKTYFKNILNSIRFSIQLSVKKIRQEVDKSTWLLPPQALNAYYLPNKNQMVFPAGILQPTLYDPDFPQSLNYGGIGTIIGHELTHGYDDWGGQYDRSGNLLHWWTEASYSRFLRKAECIVRLYDNFTVYNQRVNGKHTLGENIADMGGLKLAYHAYQKWVREHGPEHPLPRLKYTHDQLFFIAFAQNWCIKRRSQSIYLQVLTDKHAPEHYRVLGSVSQFEEFGRVLHCPKVSPMNPAHKCSVW
In the case of B2, the enzymatic activity entry in series [7] was “No activity was found”.
